Values of other authors, collected in publication PMC2730980.
pKd: −log10 of the molar value.

Molecular target: Synaptotagmin II (Rattus norvegicus) (UniProt P29101)
UniProt P29101, sequence (P29101 whole entry): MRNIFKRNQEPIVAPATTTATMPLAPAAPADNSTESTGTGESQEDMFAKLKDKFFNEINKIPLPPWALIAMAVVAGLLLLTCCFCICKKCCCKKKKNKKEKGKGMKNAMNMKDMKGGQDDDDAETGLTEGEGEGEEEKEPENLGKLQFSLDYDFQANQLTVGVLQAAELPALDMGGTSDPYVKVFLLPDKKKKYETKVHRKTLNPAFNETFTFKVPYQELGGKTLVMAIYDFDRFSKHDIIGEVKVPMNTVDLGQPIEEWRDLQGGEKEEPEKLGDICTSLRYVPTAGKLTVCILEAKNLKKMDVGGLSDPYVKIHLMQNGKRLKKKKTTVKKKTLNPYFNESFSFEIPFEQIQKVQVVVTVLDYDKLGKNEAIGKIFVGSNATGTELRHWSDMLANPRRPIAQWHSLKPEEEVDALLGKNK

Substance: Botulinum neurotoxin type B (from UniProt P10844)
- pKd: 9.40
